Laboratory results as given in patent US20180142032A1.
pKd: −log10 of the molar value.

Experiments:
LAMP1::histag (human) [1] = biological target: LAMP1::histag (human) (UniProt P11279); assay: SPR (BIAcore 2000)
LAMP1::histag (human) [2] = biological target: LAMP1::histag (human) (UniProt P11279); assay: SPR (BIAcore 2000), mAb captured by anti-Fc, LAMP1 injected 1 to 256 nM
LAMP1::histag (human) [3] = biological target: LAMP1::histag (human) (UniProt P11279); assay: competition ELISA; H4A3 0.06 mg/L read with anti-mouse IgG; competitor chMAb1 15 mg/L
LAMP1::histag (human) [4] = biological target: LAMP1::histag (human) (UniProt P11279); assay: competition ELISA; H4A3 0.06 mg/L read with anti-mouse IgG; competitor chMAb2 15 mg/L
LAMP1::histag (human) [5] = biological target: LAMP1::histag (human) (UniProt P11279); assay: competition ELISA; H4A3 0.06 mg/L read with anti-mouse IgG; competitor chMAb3 15 mg/L

Chain of LAMP1::histag (human) (P11279 other isoform, or with tags, fused parts or gaps): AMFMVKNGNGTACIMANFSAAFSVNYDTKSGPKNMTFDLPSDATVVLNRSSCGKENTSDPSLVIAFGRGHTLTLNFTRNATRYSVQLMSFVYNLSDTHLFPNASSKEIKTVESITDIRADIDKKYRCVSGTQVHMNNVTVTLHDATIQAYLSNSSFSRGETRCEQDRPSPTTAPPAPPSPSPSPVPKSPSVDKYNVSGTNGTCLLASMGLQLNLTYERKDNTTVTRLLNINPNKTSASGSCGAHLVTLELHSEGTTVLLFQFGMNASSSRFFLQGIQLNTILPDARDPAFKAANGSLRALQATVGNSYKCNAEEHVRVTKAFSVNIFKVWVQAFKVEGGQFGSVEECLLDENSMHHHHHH

- pKd (LAMP1::histag (human) [1]): 7.00
- pKd (LAMP1::histag (human) [2]): 6.98
- koff (LAMP1::histag (human) [2]): 0.00609 s⁻¹
- kon (LAMP1::histag (human) [2]): 58000 M⁻¹ s⁻¹
- percentage of signal compared to mAb control alone (LAMP1::histag (human) [3]): 98%
- percentage of signal compared to mAb control alone (LAMP1::histag (human) [4]): 57%
- percentage of signal compared to mAb control alone (LAMP1::histag (human) [5]): 11%
Substance: H4A3 (BioLegend 328602) (antibody)
